Consider two molecules from CN115975019A (INST PATHOGEN BIOLOGY CAMS, dated 2023).

A word on the EC50: it is the concentration at which the effect is half-maximal. Read a high EC50 as weaker potency. The IC50 is the concentration needed to halve the response being measured.

The target of the experiment is SARS-CoV-2 刺突RBD蛋白 (Sinobiological) (SARS-CoV-2, UniProt P0DTC2 319-541).

B1: A70抗体 (antibody, V domains shown)
VH: QITLKESGPTLVKPTQTLTLTCTFSGFSLDTPGVAIGWIRQPPGRALEWLGLIYWDGDERYNPSLTSRVTLTKDTSKNQVVLTMTNVDSVDTGTYFCGHKTIPTIFGVWGQGAPVTVSS
VL: QSALTQPASVSGSPGQSITISCAATSGDFGVFNYVSWYQQHPGKAPKLIIFEVSSRPSGVSNRFSGSKSGNTASLTVSGLQAEDEAVYHCSSYSTSSVVFGGGTKLTVL
notes: also called 抗体A70
B1: the EC50 worked out at 0.0511 mg/L and the midpoint of inhibition, the IC50, lay at 0.515 mg/L.

B2: A46抗体 (antibody, V domains shown)
VH: EVQLLESGGGLIQPGGSLRLSCAVSEFIVSRNYMSWVRQAPGKGLEWVSVLYPGGSTFYADSVKGRFTISRDESTNTLFLQMNTLRVEDTAVYYCARDFGDFYFDFWGQGTLVTVSS
VL: EIVLTQSPGTLSLSPGQRAALSCRASQSVSTYLAWYQQKPGQAPRLLIHDASSRASGVPDRFSGTGSGTDFTLTITRLEPEDFAVYYCQQYGTSPRTFGQGTKLEIK
notes: also called 抗体A46
With B2, it took 0.0355 mg/L to reach a half-maximal effect (EC50) and the IC50 is 0.703 mg/L.
